T1: 293T-CTLA-4细胞 (human CTLA-4 on 293T cells) (human, UniProt P16410 36-223)
T1 construct: whole, on cells; also called 人CTLA-4
T1 sequence (looked up): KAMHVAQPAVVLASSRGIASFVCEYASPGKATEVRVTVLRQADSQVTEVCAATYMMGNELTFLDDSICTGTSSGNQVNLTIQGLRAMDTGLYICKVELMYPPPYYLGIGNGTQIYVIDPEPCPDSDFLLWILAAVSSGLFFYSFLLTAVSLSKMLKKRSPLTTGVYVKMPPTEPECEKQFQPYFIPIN

T2: CTLA-4-hFc蛋白 (human CTLA-4 fused to human Fc) (human, UniProt P16410 36-161, limits assumed)
T2 construct: Coated on ELISA plates; also called CTLA-4-Fc; not shown: human Fc (hFc)
T2 sequence (looked up): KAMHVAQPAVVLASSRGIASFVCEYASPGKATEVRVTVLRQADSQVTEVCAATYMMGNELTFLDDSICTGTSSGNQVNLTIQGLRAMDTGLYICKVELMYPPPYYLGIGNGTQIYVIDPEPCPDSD

B1: 10F8D1人源化抗体 (humanized CTLA-4 antibody 10F8D1, IgG1) (antibody, V domains shown)
VH: QVQLVQSGAEVKKPGASVKVSCKASGYTFTNYWMHWVRQAPGQGLEWIGYINPTTTYTNYNQKFKDRATLTADKSISTAYMELSRLRSDDTAVYYCATTAQATGYGMDFWGQGTLVTVSS
VL: DIVMTQSPDSLAVSLGERATINCKSTQSLLNSGNQRNYLTWYQQKPGQPPKLLIYWASTRESGVPDRFSGSGSGTDFTLTISSLQAEDVAVYYCQNDYSFPLTFGQGTKLEIKR
notes: Humanized by CDR grafting with back mutations, built as IgG1, made in 293 cells; also called 人源化CTLA-4抗体10F8D1
B2: 3D2A10人源化抗体 (humanized CTLA-4 antibody 3D2A10, IgG1) (antibody, V domains shown)
VH: QVTLKESGPVLVKPTETLTLTCTVSGFSLTNYAVHWIRQPPGKALEWLGVIWSGGYIDYNAVFISRLTISKDNSKSQAVLTMTNMDPVDTATYYCARSGETGTYYFDYWGQGTLVTVSS
VL: EIVMTQSPATLSVSPGERATLSCRASENIYSYLAWYQQKPGQAPRLLVYSATKLANGIPARFSGSGSGTEYTLTISSLQSEDFAVYYCQHFWGTPWTFGGGTKVEIKR
notes: Humanized by CDR grafting with back mutations, built as IgG1, made in 293 cells; also called 人源化CTLA-4抗体3D2A10

What was measured:
[1] = target: T1, 293T-CTLA-4细胞 (human CTLA-4 on 293T …); test: FACS on 293T-CTLA-4 cells
[2] = target: T1, 293T-CTLA-4细胞 (human CTLA-4 on 293T …); test: competition FACS on 293T-CTLA-4 cells, competitor CD80-biotin
[3] = target: T1, 293T-CTLA-4细胞 (human CTLA-4 on 293T …); test: FACS on 293T-CTLA-4 cells; the lowest, tied by Table 7 to 10F8D1
[4] = target: T2, CTLA-4-hFc蛋白 (human CTLA-4 fused to …); test: competition ELISA, CTLA-4-hFc coated, competitor CD80-biotin
[5] = target: T2, CTLA-4-hFc蛋白 (human CTLA-4 fused to …); test: ELISA, CTLA-4-hFc coated
[6] = target: T2, CTLA-4-hFc蛋白 (human CTLA-4 fused to …); test: ELISA, CTLA-4-hFc coated; low end of the group's range, tied by Table 5 to 3D2A10
[7] = target: T2, CTLA-4-hFc蛋白 (human CTLA-4 fused to …); test: competition ELISA, CTLA-4-hFc coated, competitor CD80-biotin; the lowest, tied by Table 6 to 3D2A10
[8] = target: T1, 293T-CTLA-4细胞 (human CTLA-4 on 293T …); test: competition FACS on 293T-CTLA-4 cells, competitor CD80-biotin; the lowest, tied by Table 8 to 3D2A10

EC50 [1]	IC50 [2]	EC50 [3]	IC50 [4]	EC50 [5]	EC50 [6]	IC50 [7]	IC50 [8]	Binder
0.0231 µg/mL	1.66 µg/mL	< 0.024 µg/mL	0.388 µg/mL	0.00149 µg/mL				B1
0.0788 µg/mL	0.696 µg/mL		0.352 µg/mL	0.0012 µg/mL	0.001 µg/mL	< 0.36 µg/mL	< 0.7 µg/mL	B2
